Assay results reported in paper PMC2715020, “Identification, functional characterization and developmental regulation of sesquiterpene synthases from sunflower capitate glandular trichomes” (BMC Plant Biology, 2009).

T1: HaCS (HaTPS2) (Helianthus annuus, UniProt Q4U3F6)
T1 sequence (Q4U3F6 1-555): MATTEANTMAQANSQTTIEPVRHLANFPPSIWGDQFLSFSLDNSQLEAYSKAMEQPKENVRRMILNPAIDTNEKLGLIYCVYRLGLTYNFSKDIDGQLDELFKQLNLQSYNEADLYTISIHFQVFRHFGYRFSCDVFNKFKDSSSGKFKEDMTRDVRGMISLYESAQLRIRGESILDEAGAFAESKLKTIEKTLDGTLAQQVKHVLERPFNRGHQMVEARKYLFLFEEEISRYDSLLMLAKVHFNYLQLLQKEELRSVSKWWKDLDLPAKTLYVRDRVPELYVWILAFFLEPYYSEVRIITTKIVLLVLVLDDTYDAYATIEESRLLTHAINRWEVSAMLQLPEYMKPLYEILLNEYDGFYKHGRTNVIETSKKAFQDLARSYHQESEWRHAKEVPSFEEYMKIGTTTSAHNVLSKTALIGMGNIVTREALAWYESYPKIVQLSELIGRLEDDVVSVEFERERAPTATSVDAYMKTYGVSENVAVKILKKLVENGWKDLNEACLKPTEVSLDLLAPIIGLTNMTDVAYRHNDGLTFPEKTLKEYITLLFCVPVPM

B1: HaGAS1 (HaTPS1a; native, thioredoxin removed) (Helianthus annuus) (protein)
chain: MAAVGASATPLTNTKSTAEPVRPVANFPPSVWGDLFLSFSLDKSIMEEYAEAMEEPKEQVRRLILDPTMDSNKKLSLIYTVHRLGLTYMFLKEIEAQLDRLFKEFNLEDYVELDLYTISINFQAFRHLGYKLPCDVFNKFKNDDSTTFKESITGDVRGMLGLYESAQLRLKGENILDEASAFAETKLKSLVNTLEGSLAQQVKQSLRRPFHQGMPMVEARLYFSNYQEECSAHDSILKLAKLHFNYLQLQQKEELRIVSQWWKDMRFQETTPYIRDRVPEIYLWILGLYFEPRYSLARIIATKITLFLVVLDDTYDAYATIEEIRLLTDAINRWDISAMNQIPEYIRPFYKILLDEYAELEKQLAKEGRANSVIASKEAFQDIARGYLEEAEWTNSGYVASFPEYMKNGLITSAYNVISKSALVGMGEIVSEDALVWYESHPQILQASELISRLQDDVMTYQFERERGQSATGVDSYIKTYGVSEKVAIDELKKMIENAWKEINEGCLKPREVSMDLLAPILNLARMIDVVYRYDDGFTFPGKTLKEYITLLFVGSSPM
notes: expressed in E. coli from pET-32 EK/LIC, thioredoxin part removed by enterokinase
B2: HaGAS2 (HaTPS1b; native, thioredoxin removed) (Helianthus annuus) (protein)
chain: MAAVGASATLLTNTKSAEEPVRPVANFPPSVWGDLFLSFSLDNSMMEEYAEAMEEPKGQVRKLILDPTMDSNKKLSLIYTVHRLGLTYMFFKEIEGQLDRLFKEFNLEDYVEVDLYTISTNFQAFRHLGYKLSCDVFNKFKNYDSNTFKESITSDVRGMLGLYESAQLRLKGEKILDEASAFTETKLKSLVKTLEGSLAQQVKQSLKRPFHQGMPMVEARLYFSNYQEECSRHDSLLKLAKLHFNYLQLQQKEELRIVSQWWKDMRFQETTPYIRDRVPEIYLWILGLYFEPRYSLARIIATKITLFLVVLDDTYDAYATIEEVRLLTDAINRWDIGAMSQIPEYIRPFYKILLDEYAELEKQLAKEGRANSVIASKEAFQDIARGYLEEAEWTNSGYVASFPEYMKNGLITSAYNVISKSALVGMGEIVSEDALAWYESHPQILQASELISRLQDDVMTYQFERERGQSATGVDAYIKTYGVSEKEAIDELKKMIENAWKEINEGCLKPREVSMDLLAPILNLARMIDVVYRYDDGFTFPGKTLKEYITLLFVGSSPM
notes: full length, 559 residues; expressed in E. coli from pET-32 EK/LIC, thioredoxin part removed by enterokinase
B3: thioredoxin-HaGAS1 fusion protein (Helianthus annuus) (protein)
chain: B1 chain
notes: full length (559 residues) with uncleaved N-terminal thioredoxin and 6x-His tag (pET-32 EK/LIC), E. coli, Ni-NTA purified

How the values were obtained:
HaCS (HaTPS2) [1] = molecular target: T1, HaCS (HaTPS2); test: GC-MS of products after incubation with FDP; type: biochemical; set-up: gene CS; N-terminal thioredoxin fusion (E. coli, Ni-NTA; also S. cerevisiae EPY300), and unfused in yeast; conditions: thioredoxin fusion, 50 μM FDP, MgCl2 and MnCl2, pH 7.0, 30°C
HaCS (HaTPS2) [2] = molecular target: T1, HaCS (HaTPS2); test: GC-MS of dodecane overlay, expression in S. cerevisiae EPY300; type: cell-based; set-up: gene CS; conditions: FDP-overproducing yeast; HaCS and thioredoxin-HaCS
purified protein = substrate: CC(C)=CCC/C(C)=C/CC/C(C)=C/CO[P@@](=O)(O)OP(=O)(O)O; test: purified protein; type: biochemical, Helianthus annuus; conditions: 15 mM MOPSO, 10 mM MgCl2, 1 mM MnCl2, pH 7.0 (assay buffer), 30°C, FPP 0.125 to 30 μM

Molecule	Km (purified protein) [µM]	other results
CC(C)=CCC/C(C)=C/CC/C(C)=C/COP(=O)(O)OP(=O)(O)O [FPP]	–	GC-MS of products after incubation with FDP (HaCS (HaTPS2) [1]): in vitro enzyme assay products with substrate FDP showed the presence of the parental mass
CC1=C[C@@H]2C(=C(C)CC[C@H]2C(C)C)CC1 [δ-cadinene]	–	GC-MS of dodecane overlay, expression in S. cerevisiae EPY300 (HaCS (HaTPS2) [2]): One of the two main products was identified as δ-cadinene
B1	0.82	–
B2	0.74	–
B3	1.06	–
